For two molecules, fold CICF in SK.dDp against SK.empty and SK.tDp cells and fold CICF in SK.tDp^T39A against SK.empty cells results are on record in PMC5651189.

The target in this test is PKA regulatory subunit RIα/β (human (endogenous in SK-Br-3)) (UniProt P10644). Briefly: proximity ligation.
Sequence of PKA regulatory subunit RIα/β (human (endogenous in SK-Br-3)) (P10644 whole entry): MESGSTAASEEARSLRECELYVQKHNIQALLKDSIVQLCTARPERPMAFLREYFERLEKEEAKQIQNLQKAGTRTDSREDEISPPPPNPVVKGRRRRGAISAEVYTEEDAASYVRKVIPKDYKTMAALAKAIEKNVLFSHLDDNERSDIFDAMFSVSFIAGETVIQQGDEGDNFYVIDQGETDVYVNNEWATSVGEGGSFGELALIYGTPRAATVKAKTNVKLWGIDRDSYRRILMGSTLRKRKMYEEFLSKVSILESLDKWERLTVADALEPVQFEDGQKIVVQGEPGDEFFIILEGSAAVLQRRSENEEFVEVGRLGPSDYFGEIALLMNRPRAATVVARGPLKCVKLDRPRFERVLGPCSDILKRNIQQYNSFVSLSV

B1: Darpp-32 (dopamine- and cAMP-regulated phosphoprotein of 32 kDa) (natural protein)
chain: MDPKDRKKIQFSVPAPPSQLDPRQVEMIRRRRPTPAMLFRLSEHSSPEEEASPHQRASGEGHHLKSKRPNPCAYTPPSLKAVQRIAESHLQSISNLNENQASEEEDELGELRELGYPREEDEEEEEDDEEEEEEEDSQAEVLKVIRQSAGQKTTCGQGLEGPWERPPPLDESERDGGSEDQVEDPALSEPGEEPQRPSPSEPGT
The molecule B1 displayed a fold CICF in SK.dDp against SK.empty and SK.tDp cells of 4 fold.

B2: t-Darpp T39A phosphorylation mutant (natural protein)
chain: AYAPPSLKAVQRIAESHLQSISNLNENQASEEEDELGELRELGYPREEDEEEEEDDEEEEEEEDSQAEVLKVIRQSAGQKTTCGQGLEGPWERPPPLDESERDGGSEDQVEDPALSEPGEEPQRPSPSEPGT
On to B2, for which the fold CICF in SK.tDp^T39A against SK.empty cells came out at 3 fold.
